Legend:
[1] = molecular target: T1, canine IL-31 protein (Canine_IL31) (canine); assay: cell-based or functional assay
T1 chain: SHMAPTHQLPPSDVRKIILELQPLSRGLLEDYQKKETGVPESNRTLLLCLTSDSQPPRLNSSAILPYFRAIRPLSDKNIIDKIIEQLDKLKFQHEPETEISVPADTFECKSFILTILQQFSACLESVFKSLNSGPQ

[2] = molecular target: T2, canine IL-31 protein (Canine_IL31); assay: Biacore
T2 chain: T1 chain

[3] = molecular target: T1, canine IL-31 protein (Canine_IL31); assay: SPR (Biacore), FIG. 2 Section B
Description: (§1) The affinity with which candidate mAbs bind canine and feline IL-31 was determined using surface plasmon resonance (SPR) on a Biacore system (Biocore Life Sciences (GE Healthcare), Uppsala, Sweden). To avoid affinity differences associated with differential surface preparation that can occur when immobilizing antibodies to surfaces; a strategy was employed where IL-31 was directly conjugated to the surface. Immobilization was obtained by amine coupling 5 μg/mL IL-31 using N-hydroxysuccinimide (NHS)/1-Ethyl-3-(3-dimethylaminopropyl) carbodiimide (EDC) chemistry. Chips were quenched with ethanolamine and the affinity with which all candidate mAbs bound to the immobilized IL-31 was evaluated. All curves were fit to a 1:1 model. […] Results for affinity measurements are described herein.
FIG. 2 details the affinity of antibodies with CDRs derived from mouse origin using biacore. […] These observations confirm the correct sequence for both mouse antibodies and indicate conversion to the chimeric form results in antibodies with equivalent or higher affinity when compared to the mouse parent with the exception of the mouse:feline 15H05 chimera which lost some affinity to both IL-31 species as a result of its conversion to the chimeric form. […]

[4] = molecular target: T1, canine IL-31 protein (Canine_IL31); assay: Biacore, canine IL-31 surface, single antibody concentration (FIG. 4)
Description: as §1
For the indirect ELISA method, antibody binding to wildtype and feline IL-31 15H05 mutant proteins was assessed. All nine canine monoclonal antibodies (ZIL1, ZIL8, ZIL8, ZIL11, ZIL69, ZIL94, ZIL154, ZIL159, and ZIL171) were capable of binding to wildtype feline IL-31 and binding was impacted by mutations in the mAb 15H05 epitope region confirming the correct binding phenotype determined during the initial screening used to identify them. […]

B1: mouse: feline 15H05 chimera (antibody)
heavy: QVQLQQSAAELARPGASVKMSCKTSGYTFTSYTIHWIKQRPGQGLEWIGNINPTSGYTENNQRFKDKTTLTVDRSSNTAYLQLHSLTSEDSAVYFCARWGFKYDGEWSFDVWGAGTTVTVSSASTTAPSVFPLAPSCGTTSGATVALACLVLGYFPEPVTVSWNSGALTSGVHTFPAVLQASGLYSLSSMVTVPSSRWLSDTFTCNVAHPPSNTKVDKTVRKTDHPPGPKPCDCPKCPPPEAAGAPSIFIFPPKPKDTLSISRTPEVTCLVVDLGPDDSDVQITWFVDNTQVYTAKTSPREEQFNSTYRVVSVLPILHQDWLKGKEFKCKVNSKSLPSPIERTISKAKGQPHEPQVYVLPPAQEELSRNKVSVTCLIKSFHPPDIAVEWEITGQPEPENNYRTTPPQLDSDGTYFVYSKLSVDRSHWQRGNTYTCSVSHEALHSHHTQKSLTQSPGK
light: DIQMNQSPSSLSASLGDTITVTCRASQGISIWLSWYQQKPGNIPKVLINKASNLHIGVPPRFSGSGSGTHFTLTITSLQPEDIATYYCLQSQTYPLTFGGGTKLEINRSDAQPSVFLFQPSLDELHTGSASIVCILNDFYPKEVNVKWKVDGVVQNKGIQESTTEQNSKDSTYSLSSTLTMSSTEYQSHEKFSCEVTHKSLASTLVKSFQRSECQRE
For B1, the “IC50 against canine IL-31 (pSTAT3 assay; cell type not clear)” value [1] was 28.6 µg/ml and the Kd [2] was 0.0129 nM.

B2: 15H05 mouse: canine chimera (antibody)
heavy: QVQLQQSAAELARPGASVKMSCKTSGYTFTSYTIHWIKQRPGQGLEWIGNINPTSGYTENNQRFKDKTTLTVDRSSNTAYLQLHSLTSEDSAVYFCARWGFKYDGEWSFDVWGAGTTVTVSSASTTAPSVFPLAPSCGSTSGSTVALACLVSGYFPEPVTVSWNSGSLTSGVHTFPSVLQSSGLYSLSSMVTVPSSRWPSETFTCNVAHPASKTKVDKPVPKRENGRVPRPPDCPKCPAPEMLGGPSVFIFPPKPKDTLLIARTPEVTCVVVDLDPEDPEVQISWFVDGKQMQTAKTQPREEQFNGTYRVVSVLPIGHQDWLKGKQFTCKVNNKALPSPIERTISKARGQAHQPSVYVLPPSREELSKNTVSLTCLIKDFFPPDIDVEWQSNGQQEPESKYRTTPPQLDEDGSYFLYSKLSVDKSRWQRGDTFICAVMHEALHNHYTQESLSHSPGK
light: DIQMNQSPSSLSASLGDTITVTCRASQGISIWLSWYQQKPGNIPKVLINKASNLHIGVPPRFSGSGSGTHFTLTITSLQPEDIATYYCLQSQTYPLTFGGGTKLEINRNDAQPAVYLFQPSPDQLHTGSASVVCLLNSFYPKDINVKWKVDGVIQDTGIQESVTEQDKDSTYSLSSTLTMSSTEYLSHELYSCEITHKSLPSTLIKSFQRSEC
With B2 the “IC50 against canine IL-31 (pSTAT3 assay; cell type not clear)” value [1] was 12.5 µg/ml.

B3: Feline 11E12 1.2 (antibody, V domains shown)
VH: QVLLVQSGAEVKKPGASVKIFCKASGYSFTYYDINWLRQAPEQGLEWMGWIFPGDGGTKYNETFKGRLTLTADTSTNTVYMELSSLRSADTAMYYCARGGTSVIRDAMDYWGQGALVTVSS
VL: EVVLTQSSAFLSRTLKEKATITCRASESVDNYGISFMHWYQQKPNQAPKLLVKRASNLESGAPSRFSGSGSGTDFTLTISSPEPEDAATYYCQQSNKDPLTFGQGT
notes: also called felinized 11E12 1.2
B3: no binding [3].

B4: ZIL154 (antibody, V domains shown)
VH: EVHLVESGGDLVKPWGSLRLSCVASGFTFSDRGMSWVRQSPGKGLQWVAYIRYDGSRTDYADAVEGRFTISRDNAKNTLYLQMNSLRAEDTAVYYCARWDGSSFDYWGQGTLVTVSS
VL: DIVVTQTPLSLSVSPGETASFSCKASQSLLHSDGNTYLDWFRQKPGQSPQRLIYKVSNRDPGVPDRFSGSGSGTDFTLRISGVEADDAGLYYCMQAIHFPLTFGAGTKVELKR
notes: Recombinant fully canine IgG (65_1), HEK 293; also called CAN-ZIL154
B4: no binding [4].

— patent publication US20190284272A1 (published 2019)
